What was measured:
Mouse MOG (R&D system) = target: T1, Mouse MOG (R&D system) (mouse, UniProt Q61885 29-156, limits assumed); assay: plasma MOG clearance in mice after IC17 0.2 mg/kg IV and MOG 0.021 mg/kg IV
T1 construct: also called mouse soluble MOG; soluble MOG
T1 sequence (looked up): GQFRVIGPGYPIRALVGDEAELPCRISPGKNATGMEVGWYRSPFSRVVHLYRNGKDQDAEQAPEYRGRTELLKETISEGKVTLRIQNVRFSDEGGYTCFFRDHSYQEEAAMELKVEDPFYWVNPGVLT

[1] = target: T2, IL6R on IL6R-CHO cells (CHO cells forced to express IL6R) (UniProt P08887 20-468, limits assumed); assay: flow cytometry on IL6R-CHO cells, 4 degrees C 60 min, detection with Alexa Fluor 647 anti-dGK antibody; (a) MSA-free medium, (b) medium with 50 mg/mL MSA, (c) mouse plasma [a), (b), (c]
T2 construct: whole, on cells; also called membrane-type IL6R; IL6R on the cell membrane
T2 sequence (looked up): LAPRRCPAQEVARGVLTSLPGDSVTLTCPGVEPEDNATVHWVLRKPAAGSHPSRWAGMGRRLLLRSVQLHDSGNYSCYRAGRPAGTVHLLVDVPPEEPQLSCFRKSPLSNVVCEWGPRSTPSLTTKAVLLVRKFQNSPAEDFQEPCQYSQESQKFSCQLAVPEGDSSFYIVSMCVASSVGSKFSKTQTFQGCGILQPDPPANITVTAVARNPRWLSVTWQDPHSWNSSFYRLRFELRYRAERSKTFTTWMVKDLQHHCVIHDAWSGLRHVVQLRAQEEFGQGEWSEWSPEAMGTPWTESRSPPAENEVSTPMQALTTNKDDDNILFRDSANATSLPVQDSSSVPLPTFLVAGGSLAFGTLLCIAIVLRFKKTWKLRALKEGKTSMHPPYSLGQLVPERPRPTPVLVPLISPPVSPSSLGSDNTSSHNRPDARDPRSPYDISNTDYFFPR
Procedure: Binding ability of albumin switch molecules against the membrane-type antigens were verified. Specifically, the antibodies (10 micro g/mL) indicated below were incubated with IL6R-CHO cells (Chiome Bioscience, 2×10⁵ cells/well) in mouse serum albumin (MSA)-free CHO-S-SFM II medium (Thermo Fisher Scientific), 50 mg/mL Recombinant MSA (Albumin Bioscience)-containing medium, or mouse plasma (6-week-old male C57BL/6J mouse) at 4 degrees C. for 60 minutes. Antibodies used for the reaction were IC17, H54//IC17, and ABD094(H/L)-H54//IC17. After the reaction, the cells were washed three times with PBS(−). Addition of Alexa Fluor 647-labeled anti-dGK antibody (10 micro g/mL) was followed by incubation at 4 degrees C. for 30 minutes. Lastly, the cells were suspended in PBS(−) and analyzed by FACSCantoII (BD).

human soluble IL-6R = target: T3, human soluble IL-6R (human, UniProt P08887 20-357, limits assumed); assay: Gyrolab xP complex assay in C57BL/6J mouse plasma: antibody 0.15 µg/mL and human soluble IL-6R 0.15 µg/mL (final), capture by biotinylated anti-human IL-6R antibody, detection with AF647-anti-delta GK; signal as % of H54//IC17
T3 construct: Soluble form; also called sIL6R; Human IL-6R
T3 sequence (looked up): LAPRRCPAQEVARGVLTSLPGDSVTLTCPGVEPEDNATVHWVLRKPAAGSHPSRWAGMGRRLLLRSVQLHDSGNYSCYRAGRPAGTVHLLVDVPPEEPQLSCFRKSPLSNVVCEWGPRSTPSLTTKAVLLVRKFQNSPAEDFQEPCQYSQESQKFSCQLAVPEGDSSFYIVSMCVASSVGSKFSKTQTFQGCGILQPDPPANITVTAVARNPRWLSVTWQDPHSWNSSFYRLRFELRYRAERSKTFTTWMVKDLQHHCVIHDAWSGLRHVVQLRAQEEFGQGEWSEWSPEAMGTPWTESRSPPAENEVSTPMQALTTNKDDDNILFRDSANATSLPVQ
Procedure: First, to bind the albumin-binding portion to albumin in the plasma, the anti-human IL-6R antibodies (albumin switch molecules) indicated in Example 2 were diluted to 0.6 micro g/mL using C57BL/6J mouse plasma, and then incubated at room temperature for one hour. Next, for binding of the anti-human IL-6R antibody to the target antigen, one equivalent of human soluble IL-6R diluted to 0.6 micro g/mL in mouse plasma was added to the antibody solutions, and then the solutions were incubated at room temperature for one hour.
To detect the antigen-antibody complexes, first, the anti-delta GK antibody (AF647-anti-delta GK) was labeled using an Alexa flour 647 labeling kit (A20186, Thermo Fisher Scientific) according to the attached protocols. […]
Measurement of antigen-antibody complexes was performed using Gyrolab xP. […] The amount of the captured complex was detected by the fluorescence signal of AF647 (Detect PMT 25%). The fluorescence signal of AF647 was analyzed by Gyro Evaluator (version 3.6.2.30, Gyros Protein Technologies).

[2] = target: T4, MOG on mouse oligodendrocytes (mouse, UniProt Q61885 29-246); assay: flow cytometry on mouse brain cell suspension, O4-positive/CD45-negative oligodendrocyte fraction, 4 degrees C 60 min, detection with Alexa Fluor 647 anti-delta GK antibody; (a) MSA-free DPBS, (b) DPBS with 50 mg/mL MSA, (c) mouse plasma [a), (b), (c]
T4 construct: whole, on cells; also called MOG on the cell membrane; MOG expressed by cells in the brain
T4 sequence (looked up): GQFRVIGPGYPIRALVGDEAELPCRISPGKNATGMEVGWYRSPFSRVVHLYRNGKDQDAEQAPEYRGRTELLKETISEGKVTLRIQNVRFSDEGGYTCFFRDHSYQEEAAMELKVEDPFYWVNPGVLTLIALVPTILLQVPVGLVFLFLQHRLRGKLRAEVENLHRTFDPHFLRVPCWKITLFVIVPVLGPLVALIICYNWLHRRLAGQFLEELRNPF
Procedure: The binding ability of albumin switch molecules against the membrane-type antigens were examined. Specifically, the antibodies (10 micro g/mL) indicated below were incubated with mouse brain cell suspension (2×10⁵ cells/well), in mouse serum albumin (MSA)-free DPBS (Thermo Fisher Scientific), DPBS containing Recombinant MSA (Albumin Bioscience) at 50 mg/mL, or mouse plasma (6 weeks old, male C57BL/6J mouse) at 4 degrees C. for 60 minutes. The mouse brain cell suspension was prepared from mouse brain using Adult Brain Dissociation Kit (Miltenyi Biotec) and gentleMACS (Miltenyi Biotec). Antibodies used for the reaction were IC17, MOG//IC17, and ABD094(H/L)-MOG//IC17. After the reaction, the cells were washed once with DPBS. […] Lastly, the cells were suspended in DPBS and analyzed by FACSCantoII (BD). The fluorescence intensities of Alexa Fluor 647 in the MOG-expressing oligodendrocyte O4-positive/CD45-negative fractions were measured (Schroeter, C. B. et al., One Brain-All Cells: A Comprehensive Protocol to Isolate All Principal CNS-Resident Cell Types from Brain and Spinal Cord of Adult Healthy and EAE Mice. Cells 2021, 10(3), 651).

binding result (Mouse MOG (R&D system)): no binding
binding result [1]: no binding (tested: 10 µg/mL)
binding result (human soluble IL-6R): no binding (tested: 0.15 µg/mL)
binding result [2]: no binding (tested: 10 µg/mL)
B1: IC17 (antibody, human IgG1, kappa, V domains shown)
VH: QVQLQQSGPQLVRPGASVKISCKASGYSFTSYWMHWVNQRPGQGLEWIGMIDPSYSETRLNQKFKDKATLTVDKSSSTAYMQLSSPTSEDSAVYYCALYGNYFDYWGQGTTLTVSS
VL: DIQMTQSSSSFSVSLGDRVTITCKASEDIYNRLAWYQQKPGNAPRLLISGATSLETGVPSRFSGSGSGKDYTLSITSLQTEDVATYYCQQYWSTPYTFGGGTKLEVKR
notes: also called Anti-KLH antibody
